# Experimental data from patent US20170121381A1 (RAMOT AT TEL AVIV UNIVERSITY, published 2017).
# T1: purified active human caspase-6 (human, UniProt P55212 24-179; P55212 194-293, limits assumed)
# T1 sequence (looked up) 1: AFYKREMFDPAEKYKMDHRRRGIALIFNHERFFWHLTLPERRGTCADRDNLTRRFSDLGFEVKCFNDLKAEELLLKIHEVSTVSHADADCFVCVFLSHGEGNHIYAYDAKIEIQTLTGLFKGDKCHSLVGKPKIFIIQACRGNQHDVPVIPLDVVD
# T1 sequence (looked up) 2: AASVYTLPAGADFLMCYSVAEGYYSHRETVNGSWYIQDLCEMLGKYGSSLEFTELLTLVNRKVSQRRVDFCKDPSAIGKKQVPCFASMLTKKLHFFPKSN
# B1: ED11 (peptide)
# peptide: GRKKRRQRRRPPQSSEIVLDGTDN
# Target: T1, purified active human caspase-6
# Test: cell-based or functional assay
binder,measurement,value
B1,"Km of Michaelis-Menten curve, Caspase-Glo 6 assay with Z-VEID-aminoluciferin, 10 uM ED11",3.3 fold
